One molecule from article PMC5739299 (Molecular Biology of the Cell, 2017) can be followed below.

This assay has as its target T1, Alcadein α-FLAG, wild type, dephosphorylated with λPPase (human, UniProt O94985-2 29-971, dephosphorylated with λPPase on the beads).
T1 sequence (looked up): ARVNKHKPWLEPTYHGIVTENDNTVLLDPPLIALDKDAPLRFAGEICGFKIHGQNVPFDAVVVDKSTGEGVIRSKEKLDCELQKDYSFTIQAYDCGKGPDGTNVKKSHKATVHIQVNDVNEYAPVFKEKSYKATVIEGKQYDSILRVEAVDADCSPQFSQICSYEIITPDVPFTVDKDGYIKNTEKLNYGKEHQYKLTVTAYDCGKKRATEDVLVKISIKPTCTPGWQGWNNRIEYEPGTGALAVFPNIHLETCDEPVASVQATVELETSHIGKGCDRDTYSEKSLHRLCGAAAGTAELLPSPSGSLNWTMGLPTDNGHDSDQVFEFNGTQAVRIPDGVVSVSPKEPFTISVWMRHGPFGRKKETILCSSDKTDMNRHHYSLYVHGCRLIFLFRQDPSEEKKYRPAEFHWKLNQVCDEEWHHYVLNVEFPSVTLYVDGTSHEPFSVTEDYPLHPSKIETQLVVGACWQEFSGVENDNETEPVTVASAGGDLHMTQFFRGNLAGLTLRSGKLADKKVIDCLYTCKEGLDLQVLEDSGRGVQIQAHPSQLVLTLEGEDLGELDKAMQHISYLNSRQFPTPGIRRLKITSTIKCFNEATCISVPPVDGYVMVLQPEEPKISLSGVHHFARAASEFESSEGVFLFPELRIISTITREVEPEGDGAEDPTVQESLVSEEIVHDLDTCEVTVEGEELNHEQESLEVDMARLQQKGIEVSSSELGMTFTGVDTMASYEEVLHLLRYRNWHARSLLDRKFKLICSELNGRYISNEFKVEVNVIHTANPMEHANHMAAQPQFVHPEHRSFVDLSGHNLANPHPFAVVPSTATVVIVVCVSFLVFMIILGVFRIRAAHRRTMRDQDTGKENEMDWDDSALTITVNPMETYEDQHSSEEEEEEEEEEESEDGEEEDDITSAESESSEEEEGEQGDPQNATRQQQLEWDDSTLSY
Put plainly: pull-down.

B1: HA-KLC1 (kinesin light chain 1) (natural protein, UniProt O88447 1-541, looked up)
chain: MYDNMSTMVYIKEEKLENVTQDEIISKTKQVIQGLEALKNEHNSILQSLLETLKCLKKDDESNLVEEKSSMIRKSLEMLELGLSEAQVMMALSNHLNAVESEKQNVRAQVRRLCQENQWLRDELANTQQKLQKSEQSVAQLEEEKKHLEFMNQLKKYDDDISPSEDKDSDSSKEPLDDLFPNDEDEPGQGIQHSDSSAAAARQGYEIPARLRTLHNLVIQYASQGRYEVAVPSCKQALEDLEKTSGHDHPDVATMLNILALVYRDQNKYKDAANLLNDALAIREKTLGRDHPAVAATLNNLAVLYGKRGKYKEAEPLCKRALEIREKVLGKDHPDVAKQLNNLALLCQNQGKYEEVEYYYQRALGIYQTKLGPDRTPNVAKTKNNLASCYLKQGKFKQAETLYKEILTRAHEAEFGSVDDENKPIWMHAEEREECKGKQKDGSAFGEYGGWYKACKVDSPTVTTTLKNLGALYRRQGKFEAAETLEEAAMRSRKQGLDNVHKQRVAEVLNDPESMEKRRSRESLNMDVVKYESGPDGGEEA
As to B1, the “recovery of HA-KLC1 relative to Alcα-FLAG without λPPase treatment” value is roughly 20%.
